{
  "source": "paper doi:10.1101/2023.12.08.570755",
  "target": "activation domain of SRC-3 (ACTR), labelled with AlexaFluor 647, with a ssDNA handle",
  "test": "FRET or BRET",
  "data": [
    {"substance": "nuclear-coactivator binding domain of the CBP/p300 transcription factor (NCBD), labelled with LD750 (domain or fragment)", "values": [
      {"measurement": "most likely lifetime of the intermediate state (transient encounter complex), τi", "result": 96, "unit": "μs"}
    ]}
  ]
}
